In the supplement of paper PMC10126150:
± gives the standard deviation of the averaged measurements.

System: ATP
Test: switch fluorescence ratio, 500 uM ATP over buffer (Cy3 cluster intensity, sum of 5 cycles each) (fold (ratio)); higher = stronger signal-on switching upon ATP binding; sequences stand for … in TCGTCGGCAGCGTCAGATGTGTATAAGAGACAGTTTTTTTTTTTTTTTTTTTTTTTTT…TC
Conditions: aptamer strand: ATP DNA aptamer (quencher-CACCTGGGGGAGTATTGCGGAGGAAGG + anchor), 100 nM annealed; ATP concentration: 500 uM
In short: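 Imaging in selection buffer was followed by imaging after 15 min with 500 uM ATP at 22 °C, for Cy3-labelled switching-strand clusters annealed to 100 nM quencher-labelled ATP aptamer on a modified Illumina MiSeq flow-cell. Five of these buffer/ATP cycles ran, separated by NaOH stripping and re-annealing. The fluorescence ratio per cluster is summed target-cycle over summed buffer-cycle Cy3 intensity, averaged per switch-domain sequence; clusters outside 100-1000 RFU were removed.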
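Note: ATP exposure 15 min at 22 °C before imaging.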

Sequence | switch fluorescence ratio
ACGATAGAGG | 1.14 ± 0.015
TTGATCCGAC | 1.35 ± 0.25
TGGTACCACT | 0.996 ± 0.014
ACTGCTGGGA | 1.01 ± 0.015
GCTGGGAATA | 0.9499 ± 0.0028
CTTGTAAAAT | 0.993 ± 0.014
TTTTCATTGT | 1.02 ± 0.036
GTACTCGAGC | 1 ± 0.018
AGGTGGGCGG | 0.969 ± 0.022
TGAGAGGGTG | 1.04 ± 0.041
AATATGTTGT | 0.98 ± 0.037
AAGGCTCTTG | 0.986 ± 0.018
TGGGTTGCTG | 1.05 ± 0.066
TGTTTTTTAT | 1.02 ± 0.047
CATATAAGTA | 0.9809 ± 0.0025
AGTAAAGTGC | 1.03 ± 0.045
CGGATTGAAG | 1.007 ± 0.0092
TTAGTTTCAG | 1.012 ± 0.0033
AGTTTGCTCG | 0.971 ± 0.093
TTCTTCGGGC | 1.08 ± 0.077
TTCGGGTGCT | 1.08 ± 0.052
TTGTAGAAAA | 1.3 ± 0.37
AAATATTGCG | 0.997 ± 0.034
GGGAGAGGGG | 0.987 ± 0.02
TTGGTTTCCT | 1.02 ± 0.038
TTTCGCCGTT | 1.003 ± 0.0055

Sequence | switch fluorescence ratio
ACCTTATATA | 1.056 ± 0.0094
TGTTGATCCT | 1.03 ± 0.027
ACTAAGGGG | 1.25 ± 0.35
ATAAAGTGGA | 0.984 ± 0.044
AATATTTGGT | 0.974 ± 0.019
AACGGTGACG | 1.03 ± 0.072
AAAGGGGACG | 1.01 ± 0.017
CTGGTTAGGT | 1.01 ± 0.02
TGTTTGGGCG | 1.03 ± 0.077
ACAGTATGGT | 1.02 ± 0.029
GTGGGGTATT | 0.977 ± 0.028
GGTTTTTGGC | 1.02 ± 0.048
TTTGTTAATA | 1.02 ± 0.014
AAAGAATTTT | 1 ± 0.05
AGATTGGGGC | 0.974 ± 0.013
AAGGGGAGGA | 0.989 ± 0.016
GCAAGCAAGA | 1.18 ± 0.067
TGTCGTCTTC | 0.99 ± 0.016
CGTAGGGGAA | 0.993 ± 0.02
TGTTCTAGG | 1.01 ± 0.015
TATGGCATCG | 0.99 ± 0.014
TTCAATGAGG | 0.973 ± 0.052
CTGAGAATGG | 1.02 ± 0.011
ACTATGCTTT | 1.021 ± 0.0059
CTTAGGGGCG | 0.976 ± 0.024
CCGTGTTCGA | 1.01 ± 0.051

Sequence | switch fluorescence ratio
TCGAGGGCGA | 1.146 ± 0.0097
CAAATTGGTG | 1.083 ± 0.0018
GGATCATGTG | 1.004 ± 0.0049
CTGTAAGTCT | 0.989 ± 0.011
CCGGGGATGT | 1.05 ± 0.04
TCTGGGGTGT | 1.13 ± 0.18
ATGGGATGGC | 0.97 ± 0.031
TTTTAGACTG | 1.05 ± 0.039
GATTTTAGAC | 0.995 ± 0.015
TTCTTTTTAT | 0.982 ± 0.03
GTATGTAAT | 0.997 ± 0.011
TTCTTTATGG | 0.973 ± 0.028
GCTTGCTATT | 0.965 ± 0.021
GGTATATTTT | 1.03 ± 0.1
CCCACCGGGC | 1.05 ± 0.022
CTTTAATGTC | 1 ± 0.025
TTTAGTCCCC | 1.06 ± 0.046
TTAAGGCTAT | 1.009 ± 0.0065
ATTAAATTCG | 1 ± 0.017
TGTAAACCGG | 1.07 ± 0.042
GTTGCTTGCG | 1 ± 0.02
GTTGAGAGTC | 0.995 ± 0.038
TATAACGTTA | 0.993 ± 0.015
GCGGAGAGTT | 1.01 ± 0.019
TTTGCTTAGA | 1.04 ± 0.025
TGGTTCGAT | 0.978 ± 0.015

Sequence | switch fluorescence ratio
AGGGGAGGAT | 1.1 ± 0.15
AAGGGGTAAT | 0.967 ± 0.045
AGAACAGCAT | 1.01 ± 0.021
GTCATAGGGG | 1.01 ± 0.026
GAACGTCTAC | 1.28 ± 0.056
AATCAGTGGA | 0.974 ± 0.038
CAAATTCGAG | 0.984 ± 0.0033
TTGGGCCGGG | 0.991 ± 0.02
TCCTGTACTG | 1.04 ± 0.062
GCTGAATAAG | 0.9815 ± 0.0088
GTGAGCATGT | 1.01 ± 0.024
ATGCACCAGG | 2.55 ± 0.19
AATCCAGGGC | 1.05 ± 0.056
TTGGATGTGG | 1.02 ± 0.022
CAGAGGGGTC | 0.999 ± 0.022
GTGGATGGAC | 1.03 ± 0.022
TCTGGGGATG | 0.974 ± 0.072
CACATGTAGC | 1.02 ± 0.041
GACGGGAAAA | 1.07 ± 0.14
CATGTTAGGG | 1.01 ± 0.033
TTTTAAAGGG | 0.993 ± 0.045
AGTATATTTT | 1.006 ± 0.0046
GACGGCTGGA | 1.007 ± 0.0029
GTTGTGCAAT | 1.16 ± 0.0012
TCACAAATAA | 0.993 ± 0.043
AGTCGGGGTA | 1.02 ± 0.027

Sequence | switch fluorescence ratio
CGGGCGATGG | 1.08 ± 0.017
CGGCTGGCTT | 1 ± 0.033
GGGCCCGGGT | 0.994 ± 0.037
GCACTCTGGG | 0.995 ± 0.029
ACGCCTGGGC | 1.02 ± 0.023
ACCCGTTGCC | 1.03 ± 0.057
GGATATACGT | 1.01 ± 0.017
TTGGATTGAC | 1.06 ± 0.025
CGACAGGATG | 1.01 ± 0.033
GATTAAAGTT | 1.02 ± 0.033
CATGAATTGT | 0.974 ± 0.019
CTGGTCAATG | 1.01 ± 0.063
TGGGGCCCCA | 1.01 ± 0.046
ATGGGATTAA | 1.032 ± 0.0025
ATATTTTGGG | 1.003 ± 0.0089
GATGACTTTT | 1 ± 0.023
TGACCCGTAC | 2.64 ± 1.7
ACGGGAGCTT | 1.03 ± 0.041
AGGGGTGTTG | 0.991 ± 0.032
GGGGCTCAGA | 0.993 ± 0.011
TTTTGGGTGG | 0.988 ± 0.034
AATCTGGGCG | 0.985 ± 0.016
AAAATATGTT | 1 ± 0.023
ACTTTCAGCC | 1.03 ± 0.017
GTATAAAGGC | 1.01 ± 0.047
GGGAGTAGCG | 0.997 ± 0.022

Sequence | switch fluorescence ratio
ATCGGGGTGG | 1 ± 0.071
TTGTATATGG | 1.05 ± 0.022
AAGGCGCGGT | 1.03 ± 0.011
ATTACTCTAC | 1.27 ± 0.025
TTGACGTGCC | 1.021 ± 0.0033
TACTGGTCCA | 1.051 ± 0.0087
ACTCTTTCGG | 1 ± 0.063
CTGCCCTCGC | 1.094 ± 0.0089
TTTGGTGGTT | 1.03 ± 0.059
TGTAGGTGGT | 0.978 ± 0.016
TGGTGGACGT | 0.997 ± 0.039
AGCGAAAAGG | 1 ± 0.041
CCTCGGTATG | 1.24 ± 0.025
AACGTTAGCG | 1.002 ± 0.0045
TGGTTACTCG | 0.984 ± 0.034
GCTGTTGTCG | 0.974 ± 0.052
GGGTGAAATT | 0.986 ± 0.035
TAGGGGGTCT | 1.21 ± 0.47
GGTTTTACTC | 1.0379 ± 0.0006
TTTTAGGAGT | 0.989 ± 0.037
GAACCTAGAG | 0.98 ± 0.056
ACGGAAAACA | 1.019 ± 0.0039
ATGTGAAGAG | 0.9952 ± 0.003
